Assay results from paper PMC6358605 (2019).

B1: biotinylated AviTag-BiP^19–413 (NBD) (domain or fragment)
chain: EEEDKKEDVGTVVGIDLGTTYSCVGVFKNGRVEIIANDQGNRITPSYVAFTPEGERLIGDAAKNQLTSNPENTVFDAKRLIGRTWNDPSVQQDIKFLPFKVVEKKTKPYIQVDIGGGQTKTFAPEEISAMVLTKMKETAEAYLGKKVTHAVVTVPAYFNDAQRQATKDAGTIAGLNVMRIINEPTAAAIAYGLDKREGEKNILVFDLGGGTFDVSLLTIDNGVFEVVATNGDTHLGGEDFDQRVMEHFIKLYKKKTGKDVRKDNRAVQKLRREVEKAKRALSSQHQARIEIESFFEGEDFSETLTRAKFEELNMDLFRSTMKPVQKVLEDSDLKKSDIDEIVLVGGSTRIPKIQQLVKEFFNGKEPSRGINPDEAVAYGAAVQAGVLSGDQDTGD
modifications: biotin (on the AviTag, by E. coli BirA)
B2: Full-length mouse MANF (wild-type) (natural protein)
chain: LRPGDCEVCISYLGRFYQDLKDRDVTFSPATIEEELIKFCREARGKENRLCYYIGATDDAATKIINEVSKPLAHHIPVEKICEKLKKKDSQICELKYDNQIDLSTVDLKKLRVKELKKILDDWGEMCKGCAEKSDYIRKINELMPKYAPKAASARTDL

What was measured:
[1] = biological target: B2; test: BLI; K1/2 max, steady state
[2] = biological target: B1; test: BLI; steady-state K1/2 max

| Kd [1] [µM] | Kd [2] [µM] | Binder |
| --- | --- | --- |
| 16 | – | B1 |
| – | 13.9 | B2 |
| – | 10.3 | TVDLKKLRVKELKKILDDWGEMCKGCAEKSDYIRKINELMPKYA (domain or fragment) [SAP domain (126-169)] |
